The target of data set [1] is T1, soluble recombinant human CD39 protein (Homo sapiens, UniProt P49961).
T1 construct: made in house; host or cells: CHO cells
T1 sequence (P49961 with tags, fused parts or gaps): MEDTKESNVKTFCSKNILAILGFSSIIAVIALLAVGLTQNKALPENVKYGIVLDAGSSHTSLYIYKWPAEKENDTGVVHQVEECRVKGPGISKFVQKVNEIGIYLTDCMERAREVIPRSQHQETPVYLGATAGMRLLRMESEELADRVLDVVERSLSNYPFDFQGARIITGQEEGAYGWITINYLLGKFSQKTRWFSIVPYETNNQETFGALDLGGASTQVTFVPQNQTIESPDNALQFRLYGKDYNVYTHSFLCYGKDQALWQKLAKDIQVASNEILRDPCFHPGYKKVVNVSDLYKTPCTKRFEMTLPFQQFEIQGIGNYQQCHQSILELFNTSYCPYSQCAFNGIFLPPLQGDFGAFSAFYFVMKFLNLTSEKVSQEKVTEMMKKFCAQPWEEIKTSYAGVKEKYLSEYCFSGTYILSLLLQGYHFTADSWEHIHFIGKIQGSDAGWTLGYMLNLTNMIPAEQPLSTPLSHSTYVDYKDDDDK
As to the kind of experiment: Inhibition of the enzymatic activity of soluble CD39 (Cell Titer Glo, cell-free). The format is biochemical. Conditions: humanized variants. Here is the method:
(§1) The inhibition by antibodies of the enzymatic activity of soluble CD39 protein produced was evaluated using Cell Titer GIo™ (Promega, reference G7571) that allows assessment of ATP hydrolysis through use of a reagent that generates a luminescent signal proportional to the amount of ATP present. In this way, inhibition of the soluble-CD39-meidated ATP hydrolysis can be assessed. Briefly, dose ranges of anti-CD39 antibodies from 100 μg/ml to […] were incubated with 400 ng/ml of soluble recombinant human CD39 protein having the amino acid sequence described in the Methods section (SEQ ID NO: 44), for 1 h at 37° C. 20 μM ATP was added to the plates for 30 additional minutes at 37° C. before addition of CTG (Cell Titer Glo) reagent. Emitted light was quantified using an Enspire™ luminometer after a short incubation period of 5 min in the dark. Anti-CD39 antibody efficacy was determined by comparing emitted light in presence of antibody with ATP alone (maximal light emission) and ATP together with soluble CD39 protein (minimal light emission).
For orientation: ATP-based viability assays read luminescence as a measure of living cells.

The target in data set [2] is T2, CD39 expressed by Ramos human lymphoma cells (Homo sapiens, UniProt P49961).
T2 construct: cells that endogenously express CD39 at their surface; host or cells: Ramos
T2 sequence (P49961 1-510): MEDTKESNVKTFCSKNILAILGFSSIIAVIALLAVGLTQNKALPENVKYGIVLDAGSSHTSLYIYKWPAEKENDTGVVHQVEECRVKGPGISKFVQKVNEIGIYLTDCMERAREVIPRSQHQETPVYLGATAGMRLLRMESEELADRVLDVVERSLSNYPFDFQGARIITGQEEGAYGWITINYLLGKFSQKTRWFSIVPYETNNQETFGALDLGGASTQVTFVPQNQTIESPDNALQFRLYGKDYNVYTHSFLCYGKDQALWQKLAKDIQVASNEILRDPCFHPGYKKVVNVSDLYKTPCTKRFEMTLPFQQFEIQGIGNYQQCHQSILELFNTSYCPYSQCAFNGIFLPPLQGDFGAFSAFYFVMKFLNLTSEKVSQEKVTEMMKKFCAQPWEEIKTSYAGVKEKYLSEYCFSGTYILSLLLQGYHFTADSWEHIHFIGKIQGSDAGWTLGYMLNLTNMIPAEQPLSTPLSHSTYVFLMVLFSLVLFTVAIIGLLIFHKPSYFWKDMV
As to the kind of experiment: Inhibition of the enzymatic activity of cellular CD39 in Ramos cells. Conditions: Ramos cells. The format is cell-based. Here is the method:
(§2) The inhibition of the CD39 enzymatic activity in CD39-expressing cells by antibodies was evaluated using Cell Titer GIo™ (Promega, reference G7571) that allows assessment of ATP hydrolysis through use of a reagent that generates a luminescent signal proportional to the amount of ATP present. The assay was thus designed to permit assessment of the inhibition of ATP hydrolyzed by CD39 in the cell culture supernatant. Briefly, 5×10^4 Ramos human lymphoma cells, 5×10^3 human CD39−, cynomolgus CD39—and mouse CD39− expressing CHO cells, were incubated 1 hour at 37° C. with anti-CD39 antibodies from 30 μg/ml to 5×10^−4 μg/ml. Cells were then incubated with 20 μM ATP for 1 additional hour at 37° C. Plates were centrifuged for 2 min at 400 g and 50 μl cell supernatant are transferred in a luminescence microplate (white wells). 50 μl CellTiter-Glo™ Reagent (CTG) was added to the supernatant and emitted light was quantified after a 5 min incubation in the dark using a Enspire™ luminometer. Anti-CD39 antibody efficacy was determined by comparing emitted light in presence of antibody with ATP alone (maximal light emission) and ATP together with cells (minimal light emission).

The target of data set [3] is T3, membrane-bound CD39 in Mino tumor cells (Homo sapiens, UniProt P49961).
T3 construct: endogenous in cells; host or cells: Mino
T3 sequence (P49961 1-510): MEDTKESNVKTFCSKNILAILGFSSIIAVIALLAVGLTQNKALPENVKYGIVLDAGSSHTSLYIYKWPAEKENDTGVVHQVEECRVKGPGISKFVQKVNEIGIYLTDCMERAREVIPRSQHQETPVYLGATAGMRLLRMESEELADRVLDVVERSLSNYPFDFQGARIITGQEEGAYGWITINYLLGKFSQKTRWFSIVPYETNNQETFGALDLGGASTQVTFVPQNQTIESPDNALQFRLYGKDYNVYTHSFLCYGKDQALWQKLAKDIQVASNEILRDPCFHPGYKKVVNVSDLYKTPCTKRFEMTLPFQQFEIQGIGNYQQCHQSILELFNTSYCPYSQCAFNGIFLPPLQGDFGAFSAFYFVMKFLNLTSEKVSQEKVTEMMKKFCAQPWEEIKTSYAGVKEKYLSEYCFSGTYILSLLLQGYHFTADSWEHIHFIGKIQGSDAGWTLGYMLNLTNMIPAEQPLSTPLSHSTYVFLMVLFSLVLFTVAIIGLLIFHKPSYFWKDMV
The data set is described as follows: Inhibition of the enzymatic activity of cellular CD39 in Mino cells. The format is cell-based. Here is the method:
as §2
Antibodies were tested for potency in inhibition of ATPase activity in cell lines that express membrane-bound CD39. […]

The target in data set [4] is T4, human Ramos lymphoma cells (CD39) (Homo sapiens, UniProt P49961).
T4 construct: cells that endogenously express CD39 at their surface; host or cells: Ramos
T4 sequence (P49961 1-510): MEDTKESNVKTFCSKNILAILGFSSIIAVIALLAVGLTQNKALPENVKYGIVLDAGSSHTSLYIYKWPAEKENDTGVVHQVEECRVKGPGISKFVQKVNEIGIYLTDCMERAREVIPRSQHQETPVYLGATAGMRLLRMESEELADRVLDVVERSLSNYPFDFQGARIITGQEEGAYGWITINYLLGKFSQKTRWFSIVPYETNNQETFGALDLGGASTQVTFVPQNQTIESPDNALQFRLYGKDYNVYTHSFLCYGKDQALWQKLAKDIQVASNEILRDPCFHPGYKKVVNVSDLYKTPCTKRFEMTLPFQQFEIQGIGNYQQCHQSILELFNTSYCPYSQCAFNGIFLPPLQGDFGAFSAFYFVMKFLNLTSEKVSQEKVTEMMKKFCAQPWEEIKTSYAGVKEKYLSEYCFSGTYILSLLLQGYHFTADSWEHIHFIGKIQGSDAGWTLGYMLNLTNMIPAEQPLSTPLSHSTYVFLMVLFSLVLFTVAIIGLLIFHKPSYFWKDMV
As to the kind of experiment: Antibody titration on Ramos cells by flow cytometry. Conditions: comparison. The format is binding. Here is the method:
Antibody I-394 was tested in two repeated experiments for binding to CHO cells expressing human CD39, CHO cells expressing cynomolgus (Macaca fascicularis) CD39, CHO cells expressing murine CD39, and human Ramos lymphoma cells (ATCC™, reference CRL-1596). Cells were incubated with various concentration of unlabeled anti-CD39 antibody from 30 μg/ml to 5×10^−4 μg/ml, for 30 minutes at 4° C. After washes, cells were incubated with Goat anti-mouse H+L labeled secondary antibody for 30 min at 4° C.
(In flow cytometry, cells or beads pass a laser one at a time.)

Data set [5] deals with soluble CD39 protein released in cell culture supernatant from CHO cells expressing human CD39. As to the kind of experiment: Inhibition of ATPase activity of soluble CD39 released in CHO-huCD39 culture supernatant. The format is biochemical. Conditions: humanized variants. Here is the method: as §1
Antibodies were tested for capacity to inhibit the ATPase activity of soluble CD39 protein using the assays used for inhibition of the enzymatic activity of soluble CD39 as described above (Methods). […]

Data set [6] in a line: Stability in reference formulation (storage, freeze thaw). The format is physicochemical. The conditions noted are these: about 7 mg/mL, pH 6.0 histidine/sucrose/NaCl/PS80, +5° C. and +40° C., up to 1 month. Here is the method:
(§3) Antibodies mAb1-24 and prior art anti-CD39 antibody BY40, all produced as human IgG1 isotypes with L234A/L235E/G237A/A330S/P331S substitutions were tested for stability in the following reference formulation at a concentration of approximatively 7 mg/mL: pH 6.0; histidine buffer (10 mM); sucrose (200 mM); NaCl (50 mM); Polysorbate 80 (PS80) (0.2 g/L). The stability of the formulations was monitored in two storage conditions (at +5° C.±3° C. and at +40±3° C. For each study, 3 time points were performed: T0, T15D (15 days) and T1M (1 month). A freeze thaw (F/T) and a thermal shift stability assay (TSSA) were conducted for the format comparison. To perform F/T cycles, the samples were frozen at least 2 hours at −20° C. and thawed at least 1 hour at room temperature, the F/T cycle is repeated three times and samples are tested 24 h after the last Freeze/Thaw cycle. At each time point, the following tests were performed: • Particulate Matter (MFI) • Visual Inspection (Appearance) • Impurities (SE-HPLC) • Turbidity (400 nm) • Protein Concentration (280 nm) (performed with Nanodrop, Thermo Fisher Scientific Inc.)

Data set [7] in a line: Aggregation temperature (thermal shift stability assay). The format is physicochemical. The conditions noted are these: human IgG1 with L234A/L235E/G237A/A330S/P331S. Here is the method:
as §3

The results in this text go back to patent US12202907B2, “Nucleic acids encoding and methods of producing proteins comprising antibody chains” (Innate Pharma, priority 2018, dated 2025).

B1: mAb20: humanized I-394 variant, VH H4 (SEQ ID NO: 31), VL L1 (SEQ ID NO: 36); heavy chain SEQ ID NO: 38, light chain SEQ ID NO: 39 (antibody)
heavy: QVQLVQSGAEVKKPGASVKVSCKASGYTFTDYNMHWVRQAPGQRLEWIGYIVPLNGGSTFNQKFKGRATITVDTSARTAYMELSSLRSEDTAVYYCARGGTRFAYWGQGTLVTVSSASTKGPSVFPLAPSSKSTSGGTAALGCLVKDYFPEPVTVSWNSGALTSGVHTFPAVLQSSGLYSLSSVVTVPSSSLGTQTYICNVNHKPSNTKVDKRVEPKSCDKTHTCPPCPAPEAEGAPSVFLFPPKPKDTLMISRTPEVTCVVVDVSHEDPEVKFNWYVDGVEVHNAKTKPREEQYNSTYRVVSVLTVLHQDWLNGKEYKCKVSNKALPSSIEKTISKAKGQPREPQVYTLPPSREEMTKNQVSLTCLVKGFYPSDIAVEWESNGQPENNYKTTPPVLDSDGSFFLYSKLTVDKSRWQQGNVFSCSVMHEALHNHYTQKSLSLSPGK
light: DIVMTQSPDSLAVSLGERATINCRASESVDNFGVSFMYWFQQKPGQPPKLLIYGASNQGSGVPDRFSGSGSGTDFTLTISSLQAEDVAVYYCQQTKEVPYTFGGGTKVEIKRTVAAPSVFIFPPSDEQLKSGTASVVCLLNNFYPREAKVQWKVDNALQSGNSQESVTEQDSKDSTYSLSSTLTLSKADYEKHKVYACEVTHQGLSSPVTKSFNRGEC
For the molecule B1, the “potency for inhibition of soluble CD39 relative to parental I-394” value in data set [1] is “comparable to the parental I-394 antibody”. The “potency at blocking CD39 enzymatic activity relative to other antibodies” value in data set [2] and in data set [3] was “more potent at blocking CD39 enzymatic activity compared to all other antibodies” in each case. The “binding to Ramos cells relative to I-394” value in data set [4] was “best binding”. Also, in data set [5], the “potency relative to parental I-394, soluble CD39 in CHO-huCD39 supernatant” value is listed as “comparable to the parental I-394 antibody”. For the same molecule, in data set [6], the physicochemical stability result is “good physicochemical stability”. The “Aggregation temperature (TAgg)” value in data set [7] was ~70 °C.

B2: mAb21: humanized I-394 variant, VH H4 (SEQ ID NO: 31), VL L1* (SEQ ID NO: 37); heavy chain SEQ ID NO: 38, light chain SEQ ID NO: 40 (antibody)
heavy: QVQLVQSGAEVKKPGASVKVSCKASGYTFTDYNMHWVRQAPGQRLEWIGYIVPLNGGSTFNQKFKGRATITVDTSARTAYMELSSLRSEDTAVYYCARGGTRFAYWGQGTLVTVSSASTKGPSVFPLAPSSKSTSGGTAALGCLVKDYFPEPVTVSWNSGALTSGVHTFPAVLQSSGLYSLSSVVTVPSSSLGTQTYICNVNHKPSNTKVDKRVEPKSCDKTHTCPPCPAPEAEGAPSVFLFPPKPKDTLMISRTPEVTCVVVDVSHEDPEVKFNWYVDGVEVHNAKTKPREEQYNSTYRVVSVLTVLHQDWLNGKEYKCKVSNKALPSSIEKTISKAKGQPREPQVYTLPPSREEMTKNQVSLTCLVKGFYPSDIAVEWESNGQPENNYKTTPPVLDSDGSFFLYSKLTVDKSRWQQGNVFSCSVMHEALHNHYTQKSLSLSPGK
light: DIVMTQSPDSLAVSLGERATINCKASESVDNFGVSFMYWFQQKPGQPPKLLIYGASNQGSGVPDRFSGSGSGTDFTLTISSLQAEDVAVYYCQQTKEVPYTFGGGTKVEIKRTVAAPSVFIFPPSDEQLKSGTASVVCLLNNFYPREAKVQWKVDNALQSGNSQESVTEQDSKDSTYSLSSTLTLSKADYEKHKVYACEVTHQGLSSPVTKSFNRGEC
Take B2: the “potency for inhibition of soluble CD39 relative to parental I-394” value in data set [1] is given as “comparable to the parental I-394 antibody”. For the same molecule, the “potency at blocking CD39 enzymatic activity relative to other antibodies” value in data set [2] and in data set [3] was “more potent at blocking CD39 enzymatic activity compared to all other antibodies” in each case. For the same molecule, in data set [4], the “binding to Ramos cells relative to I-394” value is given as “best binding”. Further, the “potency relative to parental I-394, soluble CD39 in CHO-huCD39 supernatant” value in data set [5] is “comparable to the parental I-394 antibody”. Moreover, the physicochemical stability entry in data set [6] was “good physicochemical stability”. In addition, the “Aggregation temperature (TAgg)” value in data set [7] was ~70 °C.
